According to patent US20090202980A1 (CROSSBETA BIOSCIENCES B V, published 2009):
Blank lines part the entries; values can stand above or below the binder they belong to.

B4: human islet amyloid polypeptide, full length (fl-hIAPP) (peptide)
peptide: KCNTATCATQRLANFLVHSSNNFGAILSSTNVGSNTY

Tests used:
[1] = target: T1, human amyloid-β peptide Aβ(1-40) (human); experiment: ELISA, Aβ coated, plasminogen overlaid
T1 construct: also called hAβ(1-40); amyloid-β(1-40)

[2] = target: T2, recombinant tissue-type plasminogen activator (tPA) (human, UniProt P00750 36-562); experiment: ELISA, 25 µg/ml peptide immobilized
T2 construct: Commercial full-length recombinant tPA; also called Alteplase; Actilyse

[3] = target: T3, human factor XII (Hageman factor) (human, UniProt P00748 20-615); experiment: ELISA, coated peptide, FXII overlaid
T3 construct: also called FXII; fXII
T3 sequence (looked up): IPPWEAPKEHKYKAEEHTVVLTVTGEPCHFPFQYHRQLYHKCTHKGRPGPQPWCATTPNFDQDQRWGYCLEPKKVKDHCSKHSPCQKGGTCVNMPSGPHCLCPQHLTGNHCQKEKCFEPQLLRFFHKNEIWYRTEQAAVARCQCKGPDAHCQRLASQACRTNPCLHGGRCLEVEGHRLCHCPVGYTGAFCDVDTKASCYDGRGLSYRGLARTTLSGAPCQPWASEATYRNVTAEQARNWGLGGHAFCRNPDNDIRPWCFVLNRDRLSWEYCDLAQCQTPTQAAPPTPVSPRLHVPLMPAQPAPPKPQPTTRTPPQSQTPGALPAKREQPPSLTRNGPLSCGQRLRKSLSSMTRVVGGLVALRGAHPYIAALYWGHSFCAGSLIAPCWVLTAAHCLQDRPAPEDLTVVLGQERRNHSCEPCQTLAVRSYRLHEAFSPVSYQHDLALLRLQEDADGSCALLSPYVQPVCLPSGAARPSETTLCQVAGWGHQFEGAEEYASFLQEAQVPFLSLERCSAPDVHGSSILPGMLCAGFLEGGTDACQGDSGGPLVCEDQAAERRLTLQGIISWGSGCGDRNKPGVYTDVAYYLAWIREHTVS
Source text: Ten μg of the peptides that contain cross-β structure, as well as the negative control peptide mΔIAPP and phosphate-buffered saline (PBS), were spotted in duplicate.
Wells were coated in triplicate. […] Ten μg of the peptides that contain cross-β structure, as well as the negative control peptide MΔIAPP and phosphate-buffered saline (PBS), were spotted in duplicate onto methanol-activated nitrocellulose.

[4] = target: T4, tPA-F-EGF-GST (finger and EGF domains of human tPA with C-terminal GST tag) (human; Schistosoma japonicum, UniProt P00750 36-122); experiment: ELISA, 25 µg/ml peptide immobilized, excess εACA
T4 construct: domain: F-EGF; also called F-EGF-tPA; not shown: vector residues and thrombin cleavage site; Schistosoma japonicum glutathion-S-transferase (GST) tag
T4 sequence (looked up): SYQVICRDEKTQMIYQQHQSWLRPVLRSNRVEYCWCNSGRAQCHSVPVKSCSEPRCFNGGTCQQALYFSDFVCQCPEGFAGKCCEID

[5] = target: T1, human amyloid-β peptide Aβ(1-40); experiment: pull-down with Aβ fibrils, Western blot
Experimental: “Control,” medium before the pull-down, “Aβ,” washed amyloid Aβ pellet, after the pull-down, “Sup,” medium after extraction with Aβ. […] MΔIAPP was coated as non-amyloid negative control (Panel E). […] The same sections were incubated with Congo red (Panels I, K, and M) to locate amyloid deposits. Panels N and O: Pull-down assay with insoluble Aβ fibrils and finger domains. […] “Control,” medium before the pull-down, “Aβ,” washed amyloid Aβ pellet, after the pull-down, “Sup,” medium after extraction with Aβ.
(§1) Conditioned medium was used for pull-down assays using Aβ and IAPP fibrils, followed by Western blot analyses.

[6] = target: B4; experiment: pull-down with IAPP fibrils, Western blot
Source text: as §1

[7] = target: T2, recombinant tissue-type plasminogen …; experiment: ELISA on Exiqon plates
[8] = target: T5, Fn F4-5-GST (finger domains 4-5 of human fibronectin with C-terminal GST tag) (human; Schistosoma japonicum, UniProt P02751 182-276); experiment: ELISA, immobilized peptide
T5 construct: domain: fibronectin type I domains 4-5; Printed in places as Fn F4-S-GST (a misprint of F4-5); also called Fn F4-S-GST; fibronectin F4-5; not shown: (G)RP vector residues and thrombin cleavage site; Schistosoma japonicum glutathion-S-transferase (GST) tag

[9] = target: T6, tPA K1-GST (kringle 1 domain of human tPA with C-terminal GST tag) (human; Schistosoma japonicum, UniProt P00750 123-210); experiment: pull-down with IAPP fibrils, Western blot
T6 construct: domain: K1; not shown: vector residues and thrombin cleavage site; Schistosoma japonicum glutathion-S-transferase (GST) tag
T6 sequence (looked up): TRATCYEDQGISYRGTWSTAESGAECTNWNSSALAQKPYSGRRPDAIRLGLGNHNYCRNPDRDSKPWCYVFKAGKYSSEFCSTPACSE
Source text: as §1

[10] = target: T2, recombinant tissue-type plasminogen …; experiment: ELISA, 25 µg/ml peptide immobilized on Exiqon plates
[11] = target: T4, tPA-F-EGF-GST (finger and EGF domains …); experiment: ELISA, 25 µg/ml peptide immobilized, excess εACA, anti-GST detection

T1 sequence (peptide, as listed by the source): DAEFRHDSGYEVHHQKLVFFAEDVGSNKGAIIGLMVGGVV
T5 sequence (P02751 182-276, tags left off): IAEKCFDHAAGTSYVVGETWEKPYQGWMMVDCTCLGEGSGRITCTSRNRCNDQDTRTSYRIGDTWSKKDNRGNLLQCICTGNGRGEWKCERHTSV

B1: plasminogen (enzyme, UniProt P00747 20-810, looked up)
chain: EPLDDYVNTQGASLFSVTKKQLGAGSIEECAAKCEEDEEFTCRAFQYHSKEQQCVIMAENRKSSIIIRMRDVVLFEKKVYLSECKTGNGKNYRGTMSKTKNGITCQKWSSTSPHRPRFSPATHPSEGLEENYCRNPDNDPQGPWCYTTDPEKRYDYCDILECEEECMHCSGENYDGKISKTMSGLECQAWDSQSPHAHGYIPSKFPNKNLKKNYCRNPDRELRPWCFTTDPNKRWELCDIPRCTTPPPSSGPTYQCLKGTGENYRGNVAVTVSGHTCQHWSAQTPHTHNRTPENFPCKNLDENYCRNPDGKRAPWCHTTNSQVRWEYCKIPSCDSSPVSTEQLAPTAPPELTPVVQDCYHGDGQSYRGTSSTTTTGKKCQSWSSMTPHRHQKTPENYPNAGLTMNYCRNPDADKGPWCFTTDPSVRWEYCNLKKCSGTEASVVAPPPVVLLPDVETPSEEDCMFGNGKGYRGKRATTVTGTPCQDWAAQEPHRHSIFTPETNPRAGLEKNYCRNPDGDVGGPWCYTTNPRKLYDYCDVPQCAAPSFDCGKPQVEPKKCPGRVVGGCVAHPHSWPWQVSLRTRFGMHFCGGTLISPEWVLTAAHCLEKSPRPSSYKVILGAHQEVNLEPHVQEIEVSRLFLEPTRKDIALLKLSSPAVITDKVIPACLPSPNYVVADRTECFITGWGETQGTFGAGLLKEAQLPVIENKVCNRYEFLNGRVQSTELCAGHLAGGTDSCQGDSGGPLVCFEKDKYILQGVTSWGLGCARPNKPGVYVRVSRFVTWIEGVMRNN
notes: also called Plg
binding result [1]: no binding

Binder: B4
Kd [7]: 6 nM | binding result [8]: binds | binding result [9]: no binding | Kd [10]: 2 nM | Kd [11]: 13 nM

Second part, the binder after the results:

binding result [2]: no binding | binding result [3]: no binding | binding result [4]: no binding
B2: mouse non-amyloidogenic IAPP(20-29) core (ΔmIAPP) (peptide)
peptide: SNNLGPVLPP
notes: Non-amyloid negative control peptide; also called mΔIAPP; MΔIAPP

binding result [5]: no binding | binding result [6]: no binding
B3: tPA EGF-GST (EGF domain of human tPA with C-terminal GST tag) (other, UniProt P00750 86-122, looked up)
chain: CSEPRCFNGGTCQQALYFSDFVCQCPEGFAGKCCEID
notes: domain: EGF; not shown: vector residues and thrombin cleavage site; Schistosoma japonicum glutathion-S-transferase (GST) tag
